Assay results taken from patent US20180177842A1 (CANIMGUIDE THERAPEUTICS, published 2018).

B1: KKLDTFFVKLSAFTER (SEQ ID NO: 350) (peptide)
peptide: KKLDTFFVKLSAFTER
B2: KKLDTFFVKLSLFLER (SEQ ID NO: 380) (peptide)
peptide: KKLDTFFVKLSLFLER
B3: KKLDTFFVKLSLPTER (SEQ ID NO: 369) (peptide)
peptide: KKLDTFFVKLSLPTER
B4: KKLDTFFVKLSLFTLR (SEQ ID NO: 525) (peptide)
peptide: KKLDTFFVKLSLFTLR
B5: KKLDTFFVKLSLFTEH (SEQ ID NO: 528) (peptide)
peptide: KKLDTFFVKLSLFTEH
B6: KKLDTFFVKLSLFTYR (SEQ ID NO: 459) (peptide)
peptide: KKLDTFFVKLSLFTYR
B7: KKLDTFFVKLSLFVER (SEQ ID NO: 385) (peptide)
peptide: KKLDTFFVKLSLFVER
B8: KKLDTFFVKLSLFFER (SEQ ID NO: 376) (peptide)
peptide: KKLDTFFVKLSLFFER
B9: KKLDTFFVKLSLLTER (SEQ ID NO: 366) (peptide)
peptide: KKLDTFFVKLSLLTER
B10: KKLDTFFVKLSGFTER (SEQ ID NO: 431) (peptide)
peptide: KKLDTFFVKLSGFTER
B11: KKLDTFFVKLSLFCER (SEQ ID NO: 520) (peptide)
peptide: KKLDTFFVKLSLFCER
B12: KKLDTFFVKLSLFIER (SEQ ID NO: 379) (peptide)
peptide: KKLDTFFVKLSLFIER
B13: KKLDTFFVKLSLFTKR (SEQ ID NO: 471) (peptide)
peptide: KKLDTFFVKLSLFTKR
B14: KKLDTFFVKLSLGTER (SEQ ID NO: 363) (peptide)
peptide: KKLDTFFVKLSLGTER
B15: KKLDTFFVKLSLRTER (SEQ ID NO: 371) (peptide)
peptide: KKLDTFFVKLSLRTER
B16: KKLDTFFVKLSLFNER (SEQ ID NO: 382) (peptide)
peptide: KKLDTFFVKLSLFNER
B17: KKLDTFFVKLSLFMER (SEQ ID NO: 381) (peptide)
peptide: KKLDTFFVKLSLFMER
B18: KKLDTFFVKLSLFTDR (SEQ ID NO: 387) (peptide)
peptide: KKLDTFFVKLSLFTDR
B19: KKLDTFFVKLSCFTER (SEQ ID NO: 455) (peptide)
peptide: KKLDTFFVKLSCFTER
B20: KKLDTFFVKLSLFGER (SEQ ID NO: 377) (peptide)
peptide: KKLDTFFVKLSLFGER
B21: KKLDTFFVKLSFFTER (SEQ ID NO: 422) (peptide)
peptide: KKLDTFFVKLSFFTER
B22: KKLDTFFVKLSKFTER (SEQ ID NO: 438) (peptide)
peptide: KKLDTFFVKLSKFTER
B23: KKLDTFFVKLSLFTMR (SEQ ID NO: 524) (peptide)
peptide: KKLDTFFVKLSLFTMR
B24: KKLDTFFVKLSLFPER (SEQ ID NO: 383) (peptide)
peptide: KKLDTFFVKLSLFPER
B25: KKLDTFFVKLSLATER (SEQ ID NO: 361) (peptide)
peptide: KKLDTFFVKLSLATER
B26: KKLDTFFVKLSLFTEF (SEQ ID NO: 388) (peptide)
peptide: KKLDTFFVKLSLFTEF
B27: KKLDTFFVKLSHFTER (SEQ ID NO: 351) (peptide)
peptide: KKLDTFFVKLSHFTER
B28: KKLDTFFVKLSLFWER (SEQ ID NO: 386) (peptide)
peptide: KKLDTFFVKLSLFWER
B29: KKLDTFFVKLSIFTER (SEQ ID NO: 352) (peptide)
peptide: KKLDTFFVKLSIFTER
B30: KKLDTFFVKLSLFTET (SEQ ID NO: 392) (peptide)
peptide: KKLDTFFVKLSLFTET
B31: KKLDTFFVKLSLFQER (SEQ ID NO: 493) (peptide)
peptide: KKLDTFFVKLSLFQER
B32: KKLDTFFVKLSLFTEK (SEQ ID NO: 389) (peptide)
peptide: KKLDTFFVKLSLFTEK
B33: KKLDTFFVKLSLFTRR (SEQ ID NO: 531) (peptide)
peptide: KKLDTFFVKLSLFTRR
B34: KKLDTFFVKLSLHTER (SEQ ID NO: 364) (peptide)
peptide: KKLDTFFVKLSLHTER
B35: KKLDTFFVKLSLFHER (SEQ ID NO: 378) (peptide)
peptide: KKLDTFFVKLSLFHER
B36: KKLDTFFVKLSLFAER (SEQ ID NO: 489) (peptide)
peptide: KKLDTFFVKLSLFAER
B37: KKLDTFFVKLSLCTER (SEQ ID NO: 362) (peptide)
peptide: KKLDTFFVKLSLCTER
B38: KKLDTFFVKLSLFTPR (SEQ ID NO: 439) (peptide)
peptide: KKLDTFFVKLSLFTPR
B39: KKLDTFFVKLSLFTEY (SEQ ID NO: 393) (peptide)
peptide: KKLDTFFVKLSLFTEY
B40: KKLDTFFVKLSLFTQR (SEQ ID NO: 450) (peptide)
peptide: KKLDTFFVKLSLFTQR
B41: KKLDTFFVKLSLFYER (SEQ ID NO: 514) (peptide)
peptide: KKLDTFFVKLSLFYER
B42: KKLDTFFVKLSLFRER (SEQ ID NO: 33) (peptide)
peptide: KKLDTFFVKLSLFRER
B43: KKLDTFFVKLSLFTEN (SEQ ID NO: 390) (peptide)
peptide: KKLDTFFVKLSLFTEN
B44: KKLDTFFVKLSLMTER (SEQ ID NO: 367) (peptide)
peptide: KKLDTFFVKLSLMTER
B45: KKLDTFFVKLSLNTER (SEQ ID NO: 368) (peptide)
peptide: KKLDTFFVKLSLNTER
B46: KKLDTFFVKLSLFTEV (SEQ ID NO: 521) (peptide)
peptide: KKLDTFFVKLSLFTEV
B47: KKLDTFFVKLSLFKER (SEQ ID NO: 517) (peptide)
peptide: KKLDTFFVKLSLFKER
B48: KKLDTFFVKLSLFTHR (SEQ ID NO: 478) (peptide)
peptide: KKLDTFFVKLSLFTHR
B49: KKLDTFFVKLSLFSER (SEQ ID NO: 384) (peptide)
peptide: KKLDTFFVKLSLFSER
B50: KKLDTFFVKLSLQTER (SEQ ID NO: 370) (peptide)
peptide: KKLDTFFVKLSLQTER
B51: KKLDTFFVKLSLFTEM (SEQ ID NO: 529) (peptide)
peptide: KKLDTFFVKLSLFTEM
B52: KKLDTFFVKLSLITER (SEQ ID NO: 365) (peptide)
peptide: KKLDTFFVKLSLITER

Molecular target: T1, P3028 (VFDEFKPLVEEPQNLIK, SEQ ID NO: 185), His-tagged (human)
T1 construct: Synthetic fragment of human serum albumin (positions 397-413); used in solution as His-tagged peptide PGE73; also called PGE73; not shown: His-tag
T1 peptide: VFDEFKPLVEEPQNLIK
Assay: PEPSCAN ELISA; peptide on chip, His-P3028 added;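 further: peroxidase color development with ABTS and H2O2 substrate, OD405 imaged by CCD camera with image processing and taken as raw values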

Binder	RAMPO Score [rampo units]
B1	462
B2	360
B3	696
B4	246
B5	239
B6	340
B7	380
B8	348
B9	448
B10	370
B11	254
B12	375
B13	324
B14	531
B15	502
B16	599
B17	501
B18	404
B19	342
B20	343
B21	389
B22	355
B23	247
B24	551
B25	525
B26	297

Binder	RAMPO Score [rampo units]
B27	460
B28	374
B29	456
B30	292
B31	301
B32	291
B33	237
B34	1050
B35	463
B36	305
B37	400
B38	351
B39	311
B40	344
B41	270
B42	264
B43	311
B44	1190
B45	862
B46	254
B47	259
B48	318
B49	369
B50	1140
B51	238
B52	468
